These results are taken from the supplement of paper PMC10724198.

± gives the standard deviation of the averaged measurements.

This data set deals with Saccharomyces cerevisiae. Description: protein stability index of tFT-peptide fusion (C-terminal peptide) (PSI (0-1 scale)); higher = more stable (slower turnover). To be noted: temperature: 30 C. The procedure: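 MPS profiling in S. cerevisiae of the yeast C-terminome library: the last 12 aa of each annotated ORF are fused to the C-terminus of a sfGFP-mCherry timer, after a GGGS linker. Cells are FACS-sorted into 8 mCherry/sfGFP bins and deep-sequenced. PSI runs from 0 (unstable) to 1 (stable); wild type and das1Δ backgrounds, two technical replicates each.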

Setting [1] is: genetic background: das1 deletion.

On to HLYDHILEKMVK [CNM67 C-terminal 12 aa], for which the protein stability index by setting is: under setting [1], 0.694 ± 0.032; (genetic background: wild type) 0.7 ± 0.018.

For the sequence HLYFQNPPPAMC [HOT13 C-terminal 12 aa], the protein stability index was 0.72 ± 0.021 under setting [1] and 0.728 ± 0.031 (genetic background: wild type).

HNLHSYEKRLHN [IMD2 C-terminal 12 aa]: the protein stability index reads like this: under setting [1], 0.7234 ± 0.0046; (genetic background: wild type) 0.742 ± 0.066.

Consider HQFCEQKYVETI [RRT16 C-terminal 12 aa], for which the protein stability index runs as follows: under setting [1], 0.7109 ± 0.0024; (genetic background: wild type) 0.664 ± 0.0071.

The sequence HSRASVQSHPQH [DAL80 C-terminal 12 aa] returned a protein stability index under setting [1] of 0.7271 ± 0.0023 and a protein stability index (genetic background: wild type) of 0.699 ± 0.03.

For the sequence HSSYDRPMIIKN [UBP15 C-terminal 12 aa], the protein stability index was determined as 0.685 ± 0.056 under setting [1] and 0.662 ± 0.025 (genetic background: wild type).

Take IADHLVGRKRVD [PFK2 C-terminal 12 aa]: the protein stability index came out at 0.701 ± 0.014 under setting [1] and 0.712 ± 0.059 (genetic background: wild type).

As to IAEENSSTESLF [CIS1 C-terminal 12 aa], the protein stability index by setting is: under setting [1], 0.709 ± 0.0088; (genetic background: wild type) 0.726 ± 0.065.

Turning to ICCQVAKSLLKI [YGL074C C-terminal 12 aa], the protein stability index runs as follows: under setting [1], 0.656 ± 0.016; (genetic background: wild type) 0.688 ± 0.027.

Consider IDDKSDQEESLQ [MAF1 C-terminal 12 aa], for which the protein stability index was 0.706 ± 0.0079 under setting [1] and 0.664 ± 0.067 (genetic background: wild type).

IDLIAFLRNGPL [GPR1 C-terminal 12 aa]: the protein stability index runs as follows: under setting [1], 0.737 ± 0.039; (genetic background: wild type) 0.749 ± 0.088.

Take IDLLAENTKTPI [COA1 C-terminal 12 aa]: the protein stability index runs as follows: under setting [1], 0.6964 ± 0.0031; (genetic background: wild type) 0.697 ± 0.018.

For the sequence IEQEAKQRERNQ [COA6 C-terminal 12 aa], the protein stability index is, setting by setting: under setting [1], 0.6993 ± 0.0011; (genetic background: wild type) 0.701 ± 0.02.

Turning to IFCFDNYRSCYC [YKL031W C-terminal 12 aa], the protein stability index was determined as 0.7071 ± 0.0034 under setting [1] and 0.678 ± 0.038 (genetic background: wild type).

In the case of IFKSLIAKKVQS [BPL1 C-terminal 12 aa], the protein stability index runs as follows: under setting [1], 0.69 ± 0.001; (genetic background: wild type) 0.433 ± 0.033.

IFLMKKAYDLQI [EFM1 C-terminal 12 aa]: the protein stability index under setting [1] was determined as 0.675 ± 0.011 and the protein stability index (genetic background: wild type) turned out to be 0.657 ± 0.02.

Consider “IGIGTHDLHFGS [YHR052W-A C-terminal 12 aa]”, for which the protein stability index came to 0.728 ± 0.033 under setting [1] and 0.7123 ± 0.0016 (genetic background: wild type).

In the case of IGKQKCFIIEMR [MSY1 C-terminal 12 aa], the protein stability index is, setting by setting: under setting [1], 0.6688 ± 0.00094; (genetic background: wild type) 0.679 ± 0.0098.

On to IHFGETSNYSFD [SMC5 C-terminal 12 aa], for which the protein stability index under setting [1] stood at 0.722 ± 0.02 and the protein stability index (genetic background: wild type) amounted to 0.698 ± 0.017.

On to IHNDIPSHRKLK [FIR1 C-terminal 12 aa], for which the protein stability index was 0.699 ± 0.022 under setting [1] and 0.6589 ± 0.0014 (genetic background: wild type).

As to IHRVIKNATPVA [PEX28 C-terminal 12 aa], the protein stability index is 0.624 ± 0.027 under setting [1] and 0.649 ± 0.026 (genetic background: wild type).

IHSGYTNISYTI [MCM16 C-terminal 12 aa]: the protein stability index runs as follows: under setting [1], 0.709 ± 0.0077; (genetic background: wild type) 0.7012 ± 0.0067.

Consider IHYKMNENSTNQ [SYO1 C-terminal 12 aa], for which the protein stability index by setting is: under setting [1], 0.689 ± 0.0075; (genetic background: wild type) 0.68 ± 0.04.

As for IIEEKVRNYLNK [RIB5 C-terminal 12 aa], the protein stability index by setting is: under setting [1], 0.696 ± 0.061; (genetic background: wild type) 0.685 ± 0.01.

Take IKDAIKNGTGLL [MET31 C-terminal 12 aa]: the protein stability index was found to be 0.677 ± 0.0075 under setting [1] and 0.678 ± 0.014 (genetic background: wild type).

As to IKKEVSRRLNGR [CUR1 C-terminal 12 aa], the protein stability index reads like this: under setting [1], 0.647 ± 0.016; (genetic background: wild type) 0.692 ± 0.03.

As to IKNSSLAVLHST [YKL162C C-terminal 12 aa], the protein stability index under setting [1] was 0.705 ± 0.021 and the protein stability index (genetic background: wild type) came to 0.205 ± 0.019.

Turning to IKTIVEAMDVLS [PCC1 C-terminal 12 aa], the protein stability index reads like this: under setting [1], 0.67028 ± 4.3e-05; (genetic background: wild type) 0.656 ± 0.025.

With ILELPHVVSDLF [SDT1 C-terminal 12 aa], the protein stability index by setting is: under setting [1], 0.713 ± 0.0089; (genetic background: wild type) 0.7147 ± 0.0022.

On to IMALIAESGDDF [ERV14 C-terminal 12 aa], for which the protein stability index is 0.673 ± 0.021 under setting [1] and 0.7007 ± 0.0027 (genetic background: wild type).

For INDNNENASNSV [GLD1 C-terminal 12 aa], the protein stability index was 0.6943 ± 0.0069 under setting [1] and 0.676 ± 0.024 (genetic background: wild type).

With INRRQTPLQSNA [CDC39 C-terminal 12 aa], the protein stability index by setting is: under setting [1], 0.7 ± 0.011; (genetic background: wild type) 0.666 ± 0.011.

Turning to IQINKGDNIFKN [YTM1 C-terminal 12 aa], the protein stability index is, setting by setting: under setting [1], 0.688 ± 0.026; (genetic background: wild type) 0.732 ± 0.025.

Take IRIVITINKVTL [IRC9 C-terminal 12 aa]: the protein stability index by setting is: under setting [1], 0.348 ± 0.0076; (genetic background: wild type) 0.36577 ± 0.00023.

As for IRKPDDKFSSFI [YOR072W C-terminal 12 aa], the protein stability index under setting [1] was found to be 0.702 ± 0.0082 and the protein stability index (genetic background: wild type) was 0.706 ± 0.032.

Regarding IRMYLGSSLDIE [SRX1 C-terminal 12 aa], the protein stability index stood at 0.69 ± 0.013 under setting [1] and 0.6815 ± 0.0061 (genetic background: wild type).

ISICILDLASHL [YBL071C C-terminal 12 aa]: the protein stability index under setting [1] worked out at 0.6703 ± 0.0038 and the protein stability index (genetic background: wild type) stood at 0.669 ± 0.018.

As for ISLWYKHNRVKG [YPR077C C-terminal 12 aa], the protein stability index turned out to be 0.677 ± 0.017 under setting [1] and 0.5619 ± 0.0045 (genetic background: wild type).

Turning to ISSGPPPRSPNK [IGO2 C-terminal 12 aa], the protein stability index was determined as 0.68 ± 0.01 under setting [1] and 0.6422 ± 0.0036 (genetic background: wild type).

ISTAPEQMMFLP [MSG5 C-terminal 12 aa]: the protein stability index is, setting by setting: under setting [1], 0.7169 ± 0.0058; (genetic background: wild type) 0.7155 ± 0.0068.

For ISVSKKTLKSNW [HOP1 C-terminal 12 aa], the protein stability index runs as follows: under setting [1], 0.698 ± 0.011; (genetic background: wild type) 0.686 ± 0.022.

For “IVKIIRFNHASV [YHL048C-A C-terminal 12 aa]”, the protein stability index is 0.685 ± 0.016 under setting [1] and 0.658 ± 0.034 (genetic background: wild type).

As to IVNDVWLPFQKW [DSD1 C-terminal 12 aa], the protein stability index was 0.729 ± 0.03 under setting [1] and 0.701 ± 0.02 (genetic background: wild type).

Regarding IWKKVPETKRSG [VPS73 C-terminal 12 aa], the protein stability index was 0.707 ± 0.019 under setting [1] and 0.669 ± 0.022 (genetic background: wild type).

Turning to IYSVTKKRNTRI [RSF2 C-terminal 12 aa], the protein stability index is, setting by setting: under setting [1], 0.725 ± 0.026; (genetic background: wild type) 0.693 ± 0.092.

As for IYYKSQNWRREC [YBR219C C-terminal 12 aa], the protein stability index came to 0.707 ± 0.045 under setting [1] and 0.169 ± 0.0069 (genetic background: wild type).

For KAEASEAAHDEL [CPR5 C-terminal 12 aa], the protein stability index under setting [1] was determined as 0.695 ± 0.0055 and the protein stability index (genetic background: wild type) was found to be 0.676 ± 0.038.

On to KAGREELERVNV [QCR8 C-terminal 12 aa], for which the protein stability index under setting [1] is 0.688 ± 0.026 and the protein stability index (genetic background: wild type) stood at 0.685 ± 0.015.

In the case of KAINFDEDVLNL [VID30 C-terminal 12 aa], the protein stability index by setting is: under setting [1], 0.66 ± 0.017; (genetic background: wild type) 0.748 ± 0.02.

In turn, KALQKAMGSVQF [YEL1 C-terminal 12 aa] yielded a protein stability index under setting [1] of 0.702 ± 0.018 and a protein stability index (genetic background: wild type) of 0.687 ± 0.03.

With KARIVVAKSGEL [CPR1 C-terminal 12 aa], the protein stability index is, setting by setting: under setting [1], 0.686 ± 0.018; (genetic background: wild type) 0.645 ± 0.015.

For the sequence KCLDLLKTELGE [POC4 C-terminal 12 aa], the protein stability index under setting [1] was 0.699 ± 0.018 and the protein stability index (genetic background: wild type) turned out to be 0.6935 ± 0.0043.

In the case of KDSAQSLDDLLM [SFM1 C-terminal 12 aa], the protein stability index by setting is: under setting [1], 0.7007 ± 0.0043; (genetic background: wild type) 0.6969 ± 0.0046.

With KDSKEYFKNANN [TSA2 C-terminal 12 aa], the protein stability index by setting is: under setting [1], 0.714 ± 0.022; (genetic background: wild type) 0.716 ± 0.02.

Regarding KEFKQFEFHNRR [RRP36 C-terminal 12 aa], the protein stability index under setting [1] is 0.729 ± 0.011 and the protein stability index (genetic background: wild type) stood at 0.681 ± 0.011.

For the sequence KERSHHFVRNMN [YKL102C C-terminal 12 aa], the protein stability index under setting [1] was determined as 0.707 ± 0.0071 and the protein stability index (genetic background: wild type) was found to be 0.637 ± 0.048.

For the sequence KERTHLFQLIRK [EFM6 C-terminal 12 aa], the protein stability index is, setting by setting: under setting [1], 0.699 ± 0.0076; (genetic background: wild type) 0.6923 ± 0.0018.

On to KEVPLDFDPDRN [ANP1 C-terminal 12 aa], for which the protein stability index under setting [1] turned out to be 0.683 ± 0.037 and the protein stability index (genetic background: wild type) was 0.688 ± 0.022.

In the case of KEWKEKEKTGKQ [MPC1 C-terminal 12 aa], the protein stability index reads like this: under setting [1], 0.728 ± 0.012; (genetic background: wild type) 0.702 ± 0.022.

Turning to KFDKPLYERLET [YNR014W C-terminal 12 aa], the protein stability index runs as follows: under setting [1], 0.6855 ± 0.0028; (genetic background: wild type) 0.651 ± 0.044.

For KFQDVLDNFLQG [ETT1 C-terminal 12 aa], the protein stability index reads like this: under setting [1], 0.713 ± 0.019; (genetic background: wild type) 0.685 ± 0.01.

Consider KFSSTSRYMQYN [RPT1 C-terminal 12 aa], for which the protein stability index was 0.705 ± 0.016 under setting [1] and 0.642 ± 0.017 (genetic background: wild type).

On to KGATIKEIVLND [ATH1 C-terminal 12 aa], for which the protein stability index came to 0.69826 ± 0.00054 under setting [1] and 0.672 ± 0.012 (genetic background: wild type).

For KGGRLSSKPIIM [SPT3 C-terminal 12 aa], the protein stability index came to 0.683 ± 0.019 under setting [1] and 0.686 ± 0.034 (genetic background: wild type).

In the case of KGVFWDPACVIA [MFA1 C-terminal 12 aa], the protein stability index by setting is: under setting [1], 0.731 ± 0.0082; (genetic background: wild type) 0.713 ± 0.031.

Consider KHCPYVFIPYVF [ERG4 C-terminal 12 aa], for which the protein stability index under setting [1] came to 0.5262 ± 0.00096 and the protein stability index (genetic background: wild type) was 0.273 ± 0.0033.

On to KHGLNDWIVGQK [YPL225W C-terminal 12 aa], for which the protein stability index reads like this: under setting [1], 0.712 ± 0.021; (genetic background: wild type) 0.745 ± 0.035.
